Reference: patent US20200087373A1 (UNIVERSITY OF COPENHAGEN, published 2020)
Ends that are not written are not given here. * marks the point of attachment. C16 diacid = O=C(O)CCCCCCCCCCCCCCC(=O)*

Target: T1, human GIP receptor (human, UniProt P48546 22-466)
T1 sequence (looked up): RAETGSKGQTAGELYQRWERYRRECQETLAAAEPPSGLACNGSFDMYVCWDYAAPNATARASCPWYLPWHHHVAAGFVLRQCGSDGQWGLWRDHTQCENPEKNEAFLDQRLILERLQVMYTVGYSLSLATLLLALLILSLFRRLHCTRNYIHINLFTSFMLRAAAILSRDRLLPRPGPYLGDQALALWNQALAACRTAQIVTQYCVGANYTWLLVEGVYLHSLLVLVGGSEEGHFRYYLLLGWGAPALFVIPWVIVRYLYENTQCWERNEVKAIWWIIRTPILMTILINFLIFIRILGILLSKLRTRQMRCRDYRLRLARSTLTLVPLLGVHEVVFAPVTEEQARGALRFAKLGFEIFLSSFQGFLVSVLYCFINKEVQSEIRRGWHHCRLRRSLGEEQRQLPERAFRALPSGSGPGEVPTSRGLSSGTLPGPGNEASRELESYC
Assay: cell-based or functional assay

Row | Binder | cAMP agonism, EC50 (log) | cAMP agonism, Emax | cAMP agonism, nM (EC50) | cAMP antagonism, log (IC50) | cAMP antagonism, nM (IC50)
1 | EGTFISDYSIAMDKIHQQDFVNWK(C16 diacid)LAQK-NH2 (N-terminus assumed; SMILES CC[C@H](C)[C@H](NC(=O)[C@H](CO)NC(=O)[C@H](Cc1ccc(O)cc1)NC(=O)[C@H](CC(=O)O)NC(=O)[C@H](CO)NC(=O)[C@@H](NC(=O)[C@H](Cc1ccccc1)NC(=O)[C@@H](NC(=O)CNC(=O)[C@@H](N)CCC(=O)O)[C@@H](C)O)[C@@H](C)CC)C(=O)N[C@@H](C)C(=O)N[C@@H](CCSC)C(=O)N[C@@H](CC(=O)O)C(=O)N[C@@H](CCCCN)C(=O)N[C@H](C(=O)N[C@@H](Cc1c[nH]cn1)C(=O)N[C@@H](CCC(N)=O)C(=O)N[C@@H](CCC(N)=O)C(=O)N[C@@H](CC(=O)O)C(=O)N[C@@H](Cc1ccccc1)C(=O)N[C@H](C(=O)N[C@@H](CC(N)=O)C(=O)N[C@@H](Cc1c[nH]c2ccccc12)C(=O)N[C@@H](CCCCNC(=O)CCCCCCCCCCCCCCC(=O)O)C(=O)N[C@@H](CC(C)C)C(=O)N[C@@H](C)C(=O)N[C@@H](CCC(N)=O)C(=O)N[C@@H](CCCCN)C(N)=O)C(C)C)[C@@H](C)CC) [AT315 [hGIP(3-30)NH2[L26K]-C16diacid/26]] | -6.7 log M | 5.9% | 183 nM | -6.3 log M | 556 nM
2 | EGTFISDYSIAMDKIHQQK(C16 diacid)FVNWLLAQK-NH2 (N-terminus assumed; SMILES CC[C@H](C)[C@H](NC(=O)[C@H](CO)NC(=O)[C@H](Cc1ccc(O)cc1)NC(=O)[C@H](CC(=O)O)NC(=O)[C@H](CO)NC(=O)[C@@H](NC(=O)[C@H](Cc1ccccc1)NC(=O)[C@@H](NC(=O)CNC(=O)[C@@H](N)CCC(=O)O)[C@@H](C)O)[C@@H](C)CC)C(=O)N[C@@H](C)C(=O)N[C@@H](CCSC)C(=O)N[C@@H](CC(=O)O)C(=O)N[C@@H](CCCCN)C(=O)N[C@H](C(=O)N[C@@H](Cc1c[nH]cn1)C(=O)N[C@@H](CCC(N)=O)C(=O)N[C@@H](CCC(N)=O)C(=O)N[C@@H](CCCCNC(=O)CCCCCCCCCCCCCCC(=O)O)C(=O)N[C@@H](Cc1ccccc1)C(=O)N[C@H](C(=O)N[C@@H](CC(N)=O)C(=O)N[C@@H](Cc1c[nH]c2ccccc12)C(=O)N[C@@H](CC(C)C)C(=O)N[C@@H](CC(C)C)C(=O)N[C@@H](C)C(=O)N[C@@H](CCC(N)=O)C(=O)N[C@@H](CCCCN)C(N)=O)C(C)C)[C@@H](C)CC) [AT310 [hGIP(3-30)NH2[D21K]-C16diacid/21]] | -7.4 log M | 6.2% | 39 nM | -7.3 log M | 49 nM
3 | EGTFISDYSIAMDKIHQQDFVNK(C16 diacid)LLAQK-NH2 (N-terminus assumed; SMILES CC[C@H](C)[C@H](NC(=O)[C@H](CO)NC(=O)[C@H](Cc1ccc(O)cc1)NC(=O)[C@H](CC(=O)O)NC(=O)[C@H](CO)NC(=O)[C@@H](NC(=O)[C@H](Cc1ccccc1)NC(=O)[C@@H](NC(=O)CNC(=O)[C@@H](N)CCC(=O)O)[C@@H](C)O)[C@@H](C)CC)C(=O)N[C@@H](C)C(=O)N[C@@H](CCSC)C(=O)N[C@@H](CC(=O)O)C(=O)N[C@@H](CCCCN)C(=O)N[C@H](C(=O)N[C@@H](Cc1c[nH]cn1)C(=O)N[C@@H](CCC(N)=O)C(=O)N[C@@H](CCC(N)=O)C(=O)N[C@@H](CC(=O)O)C(=O)N[C@@H](Cc1ccccc1)C(=O)N[C@H](C(=O)N[C@@H](CC(N)=O)C(=O)N[C@@H](CCCCNC(=O)CCCCCCCCCCCCCCC(=O)O)C(=O)N[C@@H](CC(C)C)C(=O)N[C@@H](CC(C)C)C(=O)N[C@@H](C)C(=O)N[C@@H](CCC(N)=O)C(=O)N[C@@H](CCCCN)C(N)=O)C(C)C)[C@@H](C)CC) [AT314 [hGIP(3-30)NH2[W25K]-C16diacid/25]] | -7.2 log M | 28.4% | 62 nM | -7 log M | 101 nM
4 | EGTFISDYSIAMDKIHQQDFVK(C16 diacid)WLLAQK-NH2 (N-terminus assumed; SMILES CC[C@H](C)[C@H](NC(=O)[C@H](CO)NC(=O)[C@H](Cc1ccc(O)cc1)NC(=O)[C@H](CC(=O)O)NC(=O)[C@H](CO)NC(=O)[C@@H](NC(=O)[C@H](Cc1ccccc1)NC(=O)[C@@H](NC(=O)CNC(=O)[C@@H](N)CCC(=O)O)[C@@H](C)O)[C@@H](C)CC)C(=O)N[C@@H](C)C(=O)N[C@@H](CCSC)C(=O)N[C@@H](CC(=O)O)C(=O)N[C@@H](CCCCN)C(=O)N[C@H](C(=O)N[C@@H](Cc1c[nH]cn1)C(=O)N[C@@H](CCC(N)=O)C(=O)N[C@@H](CCC(N)=O)C(=O)N[C@@H](CC(=O)O)C(=O)N[C@@H](Cc1ccccc1)C(=O)N[C@H](C(=O)N[C@@H](CCCCNC(=O)CCCCCCCCCCCCCCC(=O)O)C(=O)N[C@@H](Cc1c[nH]c2ccccc12)C(=O)N[C@@H](CC(C)C)C(=O)N[C@@H](CC(C)C)C(=O)N[C@@H](C)C(=O)N[C@@H](CCC(N)=O)C(=O)N[C@@H](CCCCN)C(N)=O)C(C)C)[C@@H](C)CC) [AT313 [hGIP(3-30)NH2[N24K]-C16diacid/24]] | -7 log M | 7.2% | 97 nM | -6.5 log M | 348 nM
5 | EGTFISDYSIAMDKIHQQDFK(C16 diacid)NWLLAQK-NH2 (N-terminus assumed; SMILES CC[C@H](C)[C@H](NC(=O)[C@H](CO)NC(=O)[C@H](Cc1ccc(O)cc1)NC(=O)[C@H](CC(=O)O)NC(=O)[C@H](CO)NC(=O)[C@@H](NC(=O)[C@H](Cc1ccccc1)NC(=O)[C@@H](NC(=O)CNC(=O)[C@@H](N)CCC(=O)O)[C@@H](C)O)[C@@H](C)CC)C(=O)N[C@@H](C)C(=O)N[C@@H](CCSC)C(=O)N[C@@H](CC(=O)O)C(=O)N[C@@H](CCCCN)C(=O)N[C@H](C(=O)N[C@@H](Cc1c[nH]cn1)C(=O)N[C@@H](CCC(N)=O)C(=O)N[C@@H](CCC(N)=O)C(=O)N[C@@H](CC(=O)O)C(=O)N[C@@H](Cc1ccccc1)C(=O)N[C@@H](CCCCNC(=O)CCCCCCCCCCCCCCC(=O)O)C(=O)N[C@@H](CC(N)=O)C(=O)N[C@@H](Cc1c[nH]c2ccccc12)C(=O)N[C@@H](CC(C)C)C(=O)N[C@@H](CC(C)C)C(=O)N[C@@H](C)C(=O)N[C@@H](CCC(N)=O)C(=O)N[C@@H](CCCCN)C(N)=O)[C@@H](C)CC) [AT312 [hGIP(3-30)NH2[V23K]-C16diacid/23]] | -5.4 log M | 54% | 4080 nM | – | –
6 | EGTFISDYSIAMDKIHQQDK(C16 diacid)VNWLLAQK-NH2 (N-terminus assumed; SMILES CC[C@H](C)[C@H](NC(=O)[C@H](CO)NC(=O)[C@H](Cc1ccc(O)cc1)NC(=O)[C@H](CC(=O)O)NC(=O)[C@H](CO)NC(=O)[C@@H](NC(=O)[C@H](Cc1ccccc1)NC(=O)[C@@H](NC(=O)CNC(=O)[C@@H](N)CCC(=O)O)[C@@H](C)O)[C@@H](C)CC)C(=O)N[C@@H](C)C(=O)N[C@@H](CCSC)C(=O)N[C@@H](CC(=O)O)C(=O)N[C@@H](CCCCN)C(=O)N[C@H](C(=O)N[C@@H](Cc1c[nH]cn1)C(=O)N[C@@H](CCC(N)=O)C(=O)N[C@@H](CCC(N)=O)C(=O)N[C@@H](CC(=O)O)C(=O)N[C@@H](CCCCNC(=O)CCCCCCCCCCCCCCC(=O)O)C(=O)N[C@H](C(=O)N[C@@H](CC(N)=O)C(=O)N[C@@H](Cc1c[nH]c2ccccc12)C(=O)N[C@@H](CC(C)C)C(=O)N[C@@H](CC(C)C)C(=O)N[C@@H](C)C(=O)N[C@@H](CCC(N)=O)C(=O)N[C@@H](CCCCN)C(N)=O)C(C)C)[C@@H](C)CC) [AT311 [hGIP(3-30)NH2[F22K]-C16diacid/22]] | -6.1 log M | 17.5% | 784 nM | -6 log M | 923 nM
7 | EGTFISDYSIAMDKIHQK(C16 diacid)DFVNWLLAQK-NH2 (N-terminus assumed; SMILES CC[C@H](C)[C@H](NC(=O)[C@H](CO)NC(=O)[C@H](Cc1ccc(O)cc1)NC(=O)[C@H](CC(=O)O)NC(=O)[C@H](CO)NC(=O)[C@@H](NC(=O)[C@H](Cc1ccccc1)NC(=O)[C@@H](NC(=O)CNC(=O)[C@@H](N)CCC(=O)O)[C@@H](C)O)[C@@H](C)CC)C(=O)N[C@@H](C)C(=O)N[C@@H](CCSC)C(=O)N[C@@H](CC(=O)O)C(=O)N[C@@H](CCCCN)C(=O)N[C@H](C(=O)N[C@@H](Cc1c[nH]cn1)C(=O)N[C@@H](CCC(N)=O)C(=O)N[C@@H](CCCCNC(=O)CCCCCCCCCCCCCCC(=O)O)C(=O)N[C@@H](CC(=O)O)C(=O)N[C@@H](Cc1ccccc1)C(=O)N[C@H](C(=O)N[C@@H](CC(N)=O)C(=O)N[C@@H](Cc1c[nH]c2ccccc12)C(=O)N[C@@H](CC(C)C)C(=O)N[C@@H](CC(C)C)C(=O)N[C@@H](C)C(=O)N[C@@H](CCC(N)=O)C(=O)N[C@@H](CCCCN)C(N)=O)C(C)C)[C@@H](C)CC) [AT309 [hGIP(3-30)NH2[Q20K]-C16diacid/20]] | – | – | – | -7.4 log M | 36 nM
